In this experiment the target is CLS (C-terminal fragment of human L-selectin with its entire transmembrane and cytoplasmic domains) (human). Put plainly: AUC.

“CLS (C-terminal fragment of human L-selectin with its entire transmembrane and cytoplasmic domains) (domain or fragment)” showed a pKd (molar fraction units) of 1.49.

These data come from article PMC3078985.
